Reference: article PMC9482650, “Quantitative fragmentomics allow affinity mapping of interactomes” (Nature Communications, 2022)
Values belong to the binder of their own block, whether it stands above or below them.

Experiments:
Assay in all cases: holdup assay
Design in all cases: key: below the threshold = too weak to quantify, mostly under pKd 3.1 to 4
[1] = molecular target: T1, MPP7, Q5T2T1
T1 sequence (Q5T2T1 134-230, limits assumed, looked up): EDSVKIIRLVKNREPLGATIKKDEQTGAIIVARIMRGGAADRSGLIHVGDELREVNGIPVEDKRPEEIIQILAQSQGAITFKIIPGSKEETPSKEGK

[2] = molecular target: Inadl_5, Q8NI35
[3] = molecular target: T2, LRRC7, Q96NW7
T2 sequence (Q96NW7 1440-1537, limits assumed, looked up): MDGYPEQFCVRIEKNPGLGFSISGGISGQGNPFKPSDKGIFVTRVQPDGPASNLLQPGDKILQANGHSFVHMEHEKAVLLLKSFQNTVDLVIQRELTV

[4] = molecular target: MAGI1_2, Q96QZ7
[5] = molecular target: T3, RADIL, Q96JH8
T3 sequence (Q96JH8 971-1071, limits assumed, looked up): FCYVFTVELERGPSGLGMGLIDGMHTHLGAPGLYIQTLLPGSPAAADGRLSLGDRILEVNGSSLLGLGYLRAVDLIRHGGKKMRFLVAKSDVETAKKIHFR

[6] = molecular target: PARD3_3, Q8TEW0
[7] = molecular target: ARHGEF12, Q9NZN5-2
[8] = molecular target: LAP2, Q96RT1
[9] = molecular target: T4, RHPN1, Q8TCX5
T4 sequence (Q8TCX5 508-602, limits assumed, looked up): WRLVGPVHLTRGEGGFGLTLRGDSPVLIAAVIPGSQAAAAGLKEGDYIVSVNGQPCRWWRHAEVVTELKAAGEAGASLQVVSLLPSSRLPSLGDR

[10] = molecular target: PICK1, Q9NRD5
[11] = molecular target: T5, HTRA4, P83105
T5 sequence (P83105 378-476, limits assumed, looked up): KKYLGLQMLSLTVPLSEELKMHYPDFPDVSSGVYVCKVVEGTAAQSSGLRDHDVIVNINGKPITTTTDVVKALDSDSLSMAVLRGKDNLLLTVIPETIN

[12] = molecular target: T6, PCLO, Q9Y6V0
T6 sequence (Q9Y6V0 4491-4600, limits assumed, looked up): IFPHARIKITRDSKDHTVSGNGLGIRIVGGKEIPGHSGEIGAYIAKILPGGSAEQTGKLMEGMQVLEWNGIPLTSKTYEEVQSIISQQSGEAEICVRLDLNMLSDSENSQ

[13] = molecular target: DLG1_2, Q12959
[14] = molecular target: MAST2, Q6P0Q8
[15] = molecular target: GRIP2_4, Q9C0E4
[16] = molecular target: DLG4_1, P78352
[17] = molecular target: T7, GRIP1_3, Q9Y3R0
T7 sequence (Q9Y3R0 247-346, limits assumed, looked up): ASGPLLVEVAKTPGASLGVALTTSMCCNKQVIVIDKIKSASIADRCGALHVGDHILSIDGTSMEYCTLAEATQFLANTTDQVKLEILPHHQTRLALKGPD

[18] = molecular target: T8, LIN7A, O14910
T8 sequence (O14910 103-200, limits assumed, looked up): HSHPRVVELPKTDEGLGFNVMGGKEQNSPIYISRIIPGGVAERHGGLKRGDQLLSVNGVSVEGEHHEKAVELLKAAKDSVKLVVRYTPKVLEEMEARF

[19] = molecular target: T9, PDZRN3_1, Q9UPQ7
T9 sequence (Q9UPQ7 244-349, limits assumed, looked up): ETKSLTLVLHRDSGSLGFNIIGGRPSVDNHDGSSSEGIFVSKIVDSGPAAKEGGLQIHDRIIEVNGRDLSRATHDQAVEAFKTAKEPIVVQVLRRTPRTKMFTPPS

[20] = molecular target: T10, NHERF3_4, Q5T2W1
T10 sequence (Q5T2W1 373-468, limits assumed, looked up): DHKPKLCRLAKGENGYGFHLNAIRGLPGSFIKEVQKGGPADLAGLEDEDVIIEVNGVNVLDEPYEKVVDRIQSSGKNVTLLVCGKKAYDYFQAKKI

[21] = molecular target: IL16_1, Q14005
[22] = molecular target: T11, NHERF3_1, Q5T2W1
T11 sequence (Q5T2W1 4-100, limits assumed, looked up): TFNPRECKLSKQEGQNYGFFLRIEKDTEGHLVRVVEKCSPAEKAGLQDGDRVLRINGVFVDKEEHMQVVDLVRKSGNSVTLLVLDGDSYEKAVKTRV

[23] = molecular target: T12, DFNB31_1, Q9P202
T12 sequence (Q9P202 135-233, limits assumed, looked up): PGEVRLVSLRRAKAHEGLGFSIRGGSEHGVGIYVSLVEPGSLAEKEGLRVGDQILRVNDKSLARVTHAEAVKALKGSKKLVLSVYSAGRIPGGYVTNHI

[24] = molecular target: Inadl_2, Q8NI35
[25] = plain residues with an end cap or a label only (N-terminal biotin on a linker: ado-ado)
[26] = plain residues with an end cap or a label only (N-terminal biotin on a linker: ttds)
[27] = plain residues with an end cap or a label only (N-terminal biotin on a linker: ahx)

Sequence of GRIP2_4, Q9C0E4 (Q9C0E4 446-548): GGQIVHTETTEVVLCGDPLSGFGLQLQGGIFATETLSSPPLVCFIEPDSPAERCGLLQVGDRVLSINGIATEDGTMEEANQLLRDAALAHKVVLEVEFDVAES
Sequence of Inadl_2, Q8NI35 (Q8NI35 238-335): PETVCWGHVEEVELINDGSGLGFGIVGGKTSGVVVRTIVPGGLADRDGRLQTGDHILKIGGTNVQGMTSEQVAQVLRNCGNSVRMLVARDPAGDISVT
Sequence of DLG1_2, Q12959 (Q12959 314-412): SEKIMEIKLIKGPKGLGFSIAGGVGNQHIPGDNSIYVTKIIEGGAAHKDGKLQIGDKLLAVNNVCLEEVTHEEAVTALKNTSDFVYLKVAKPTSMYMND
Sequence of ARHGEF12, Q9NZN5-2 (Q9NZN5 other isoform, or with tags, fused parts or gaps): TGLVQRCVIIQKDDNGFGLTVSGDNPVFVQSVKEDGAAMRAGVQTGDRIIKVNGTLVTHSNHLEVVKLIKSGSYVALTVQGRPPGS
Sequence of MAST2, Q6P0Q8 (Q6P0Q8 1099-1202): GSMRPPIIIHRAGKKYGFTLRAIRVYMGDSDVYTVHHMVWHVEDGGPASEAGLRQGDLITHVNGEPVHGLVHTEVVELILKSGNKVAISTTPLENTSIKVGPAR
Sequence of PARD3_3, Q8TEW0 (Q8TEW0 582-685): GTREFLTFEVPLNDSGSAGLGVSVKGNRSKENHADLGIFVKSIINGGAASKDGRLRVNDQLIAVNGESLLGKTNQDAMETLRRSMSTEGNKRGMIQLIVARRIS
Sequence of LAP2, Q96RT1 (Q96RT1 other isoform, or with tags, fused parts or gaps): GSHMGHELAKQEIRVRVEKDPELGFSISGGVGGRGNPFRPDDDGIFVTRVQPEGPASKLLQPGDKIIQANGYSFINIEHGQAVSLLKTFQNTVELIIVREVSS
Sequence of IL16_1, Q14005 (Q14005 210-306): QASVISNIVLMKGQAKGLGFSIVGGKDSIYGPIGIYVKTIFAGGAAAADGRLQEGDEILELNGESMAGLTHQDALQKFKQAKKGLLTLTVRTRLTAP
Sequence of PICK1, Q9NRD5 (Q9NRD5 17-115): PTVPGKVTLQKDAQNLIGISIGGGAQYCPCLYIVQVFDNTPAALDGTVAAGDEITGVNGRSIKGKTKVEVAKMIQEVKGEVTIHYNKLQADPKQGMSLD
Sequence of MAGI1_2, Q96QZ7 (Q96QZ7 456-580): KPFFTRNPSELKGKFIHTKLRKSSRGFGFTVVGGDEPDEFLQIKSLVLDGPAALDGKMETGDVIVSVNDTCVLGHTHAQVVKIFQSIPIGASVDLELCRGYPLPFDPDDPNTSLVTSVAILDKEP
Sequence of DLG4_1, P78352 (P78352 62-152): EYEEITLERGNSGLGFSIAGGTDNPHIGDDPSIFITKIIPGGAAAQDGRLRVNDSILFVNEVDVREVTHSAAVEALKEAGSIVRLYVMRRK
Sequence of Inadl_5, Q8NI35 (Q8NI35 673-780): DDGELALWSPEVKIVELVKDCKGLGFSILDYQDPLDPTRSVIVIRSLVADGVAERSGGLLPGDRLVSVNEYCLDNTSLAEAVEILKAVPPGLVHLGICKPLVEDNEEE

pKd [1, 25]: below the threshold
pKd [2, 25]: below the threshold
pKd [3, 25]: below the threshold
pKd [4, 25]: below the threshold
pKd [5, 25]: below the threshold
pKd [6, 25]: below the threshold
pKd [7, 25]: below the threshold
pKd [8, 25]: below the threshold
pKd [9, 25]: below the threshold
pKd [10, 25]: below the threshold
pKd [11, 25]: 3.75
pKd [12, 25]: below the threshold
pKd [13, 25]: below the threshold
pKd [14, 25]: 4.73
pKd [15, 25]: below the threshold
pKd [16, 25]: below the threshold
pKd [17, 25]: below the threshold
pKd [18, 25]: below the threshold
pKd [19, 25]: below the threshold
pKd [20, 25]: 3.7
pKd [21, 25]: below the threshold
pKd [22, 25]: 3.53
pKd [23, 25]: below the threshold
pKd [24, 25]: below the threshold
B1: TRIM50, Q86XT4 (peptide)
chain: PLSPEQPTKL

pKd [1, 26]: below the threshold
pKd [2, 26]: below the threshold
pKd [3, 26]: 3.58
pKd [4, 26]: 4.49
pKd [5, 26]: below the threshold
pKd [6, 26]: below the threshold
pKd [7, 26]: 4.23
pKd [8, 26]: 3.87
pKd [9, 26]: 4.19
pKd [10, 26]: below the threshold
pKd [11, 26]: below the threshold
pKd [12, 26]: below the threshold
pKd [13, 26]: 6.06
pKd [14, 26]: 4.93
pKd [15, 26]: below the threshold
pKd [16, 26]: 5.05
pKd [17, 26]: below the threshold
pKd [18, 26]: 4.38
pKd [19, 26]: 4.47
pKd [20, 26]: below the threshold
pKd [21, 26]: 4.07
pKd [22, 26]: below the threshold
pKd [23, 26]: 3.96
pKd [24, 26]: below the threshold
B2: FRMPD4, Q14CM0 (peptide)
chain: RLPKIKETTV

pKd [1, 27]: below the threshold
pKd [2, 27]: below the threshold
pKd [3, 27]: 3.5
pKd [4, 27]: 3.61
pKd [5, 27]: 3.61
pKd [6, 27]: 3.81
pKd [7, 27]: below the threshold
pKd [8, 27]: below the threshold
pKd [9, 27]: below the threshold
pKd [10, 27]: below the threshold
pKd [11, 27]: below the threshold
pKd [12, 27]: below the threshold
pKd [13, 27]: 3.52
pKd [14, 27]: below the threshold
pKd [15, 27]: below the threshold
pKd [16, 27]: below the threshold
pKd [17, 27]: below the threshold
pKd [18, 27]: 3.52
pKd [19, 27]: 3.56
pKd [20, 27]: 3.61
pKd [21, 27]: below the threshold
pKd [22, 27]: below the threshold
pKd [23, 27]: below the threshold
pKd [24, 27]: below the threshold
B3: PDZRN4, Q6ZMN7 (peptide)
chain: HNAFLSVTTV
